Drawing on patent US20060121032A1, this text covers ADCC EC50 (ng/ml), DoHH-2 target cells, human PBMCs, ADCC log(EC50), DoHH-2 target cells, human PBMCs and Kd for seven substances.

For one test, the target named is FcγRIIIa on human PBMCs expressing heterozygous V158/F158 FcγRIIIa (human) (UniProt P08637). The test can be described thus: cell-based or functional assay.
Sequence of FcγRIIIa on human PBMCs expressing heterozygous V158/F158 FcγRIIIa (human) (P08637 17-254): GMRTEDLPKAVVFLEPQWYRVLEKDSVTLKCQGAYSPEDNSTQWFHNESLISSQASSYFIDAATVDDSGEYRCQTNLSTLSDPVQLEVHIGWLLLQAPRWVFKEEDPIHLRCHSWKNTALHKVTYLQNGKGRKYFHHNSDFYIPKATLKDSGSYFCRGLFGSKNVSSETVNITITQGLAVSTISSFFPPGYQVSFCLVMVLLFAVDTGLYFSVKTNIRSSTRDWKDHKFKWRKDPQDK
Turning to alemtuzumab S239D/I332E (antibody), the ADCC EC50 (ng/ml), DoHH-2 target cells, human PBMCs was found to be 3 ng/mL and the ADCC log(EC50), DoHH-2 target cells, human PBMCs is 0.49 log(ng/ml).

With alemtuzumab V264I/I332E (antibody), the ADCC EC50 (ng/ml), DoHH-2 target cells, human PBMCs was found to be 4 ng/mL and the ADCC log(EC50), DoHH-2 target cells, human PBMCs is 0.6 log(ng/ml).

The target of the next test is extracellular region of human F158 FcγRIIIa with C-terminal 6×His-tag and GST-tag (human) (UniProt P08637). Nature of the test: SPR, receptor on chip.
Sequence of extracellular region of human F158 FcγRIIIa with C-terminal 6×His-tag and GST-tag (human) (P08637 17-208): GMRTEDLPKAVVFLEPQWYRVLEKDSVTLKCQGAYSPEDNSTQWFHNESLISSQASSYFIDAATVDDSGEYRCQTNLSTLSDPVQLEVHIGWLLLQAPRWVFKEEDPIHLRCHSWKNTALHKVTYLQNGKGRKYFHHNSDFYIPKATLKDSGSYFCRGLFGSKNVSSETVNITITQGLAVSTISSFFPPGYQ
In turn, WT alemtuzumab (antibody) had a Kd of 730 nM.

alemtuzumab I332E (antibody) came in with a Kd of 72 nM.

alemtuzumab S298A (antibody): the Kd came to 285 nM.

As to “alemtuzumab S298A/E333A/K334A (antibody)”, the Kd was found to be 156 nM.

Turning to alemtuzumab V264I (antibody), the Kd came out at 550 nM.

In the case of alemtuzumab V264I/I332E (antibody), the Kd came to 52 nM.
